B1: MXI1 peptide 6-21 (Max-interacting protein 1), 16-mer library wild type / SIN3A PAH2 (SIN3A PAH domain, residues 295-383) (parent complex)
chain 1: MINVQRLLEAAEFLER
chain 2: SLQNNQPVEFNHAINYVNKIKNRFQGQPDIYKAFLEILHTYQKEQRNAKEAGGNYTPALTEQEVYAQVARLFKNQEDLLSEFGQFLPDA

Variants of: B1
Assay: proteomic peptide phage display deep mutational scan (ProP-PD DMS): M13 P8 16-mer library selected against immobilised GST-tagged bait for four days (rounds), NGS of the eluted pools per day and pseudo-replica; bait immobilised on MaxiSorp plates (10 µg), library pre-cleared on GST, 2 h binding at 4 °C, five washes; one round per day, days 1-4; value from days 2 and 3

First: chain 1 Q5H
Second: chain 1 Q5N
The screen value of the first is higher: 0.00355 average fractional NGS count over selection days 2 and 3 (reads of this peptide / all reads for the bait, averaged over … for the first, 0.000576 average fractional NGS count over selection days 2 and 3 (reads of this peptide / all reads for the bait, averaged over … for the second.

Going from chain 1 Q5Y to chain 1 Q5F, the screen value falls from 0.00574 average fractional NGS count over selection days 2 and 3 (reads of this peptide / all reads for the bait, averaged over … to 0.000275 average fractional NGS count over selection days 2 and 3 (reads of this peptide / all reads for the bait, averaged over ….

Compared with chain 1 Q5M, chain 1 Q5A is higher in screen value: 0.000803 average fractional NGS count over selection days 2 and 3 (reads of this peptide / all reads for the bait, averaged over … for the first, 0.000986 average fractional NGS count over selection days 2 and 3 (reads of this peptide / all reads for the bait, averaged over … for the second.

Compared with chain 1 Q5T, chain 1 Q5S is lower in screen value: 0.00207 average fractional NGS count over selection days 2 and 3 (reads of this peptide / all reads for the bait, averaged over … for the first, 0.000556 average fractional NGS count over selection days 2 and 3 (reads of this peptide / all reads for the bait, averaged over … for the second.

Going from chain 1 M1I to chain 1 M1Y, the screen value rises from 0.000114 average fractional NGS count over selection days 2 and 3 (reads of this peptide / all reads for the bait, averaged over … to 0.000304 average fractional NGS count over selection days 2 and 3 (reads of this peptide / all reads for the bait, averaged over ….

Going from chain 1 M1K to chain 1 M1D, the screen value falls from 0.000747 average fractional NGS count over selection days 2 and 3 (reads of this peptide / all reads for the bait, averaged over … to 9.92e-05 average fractional NGS count over selection days 2 and 3 (reads of this peptide / all reads for the bait, averaged over ….

Compared with chain 1 M1W, chain 1 M1F is lower in screen value: 0.00153 average fractional NGS count over selection days 2 and 3 (reads of this peptide / all reads for the bait, averaged over … for the first, 0.000314 average fractional NGS count over selection days 2 and 3 (reads of this peptide / all reads for the bait, averaged over … for the second.

First: chain 1 M1P
Second: chain 1 L14R
The screen value of the first is lower: 0.000146 average fractional NGS count over selection days 2 and 3 (reads of this peptide / all reads for the bait, averaged over … for the first, 0.000773 average fractional NGS count over selection days 2 and 3 (reads of this peptide / all reads for the bait, averaged over … for the second.

First: chain 1 L14K
Second: chain 1 L14E
The screen value of the first is lower: 0.000523 average fractional NGS count over selection days 2 and 3 (reads of this peptide / all reads for the bait, averaged over … for the first, 0.00161 average fractional NGS count over selection days 2 and 3 (reads of this peptide / all reads for the bait, averaged over … for the second.

Going from chain 1 L14Y to chain 1 L14S, the screen value rises from 0.00247 average fractional NGS count over selection days 2 and 3 (reads of this peptide / all reads for the bait, averaged over … to 0.00955 average fractional NGS count over selection days 2 and 3 (reads of this peptide / all reads for the bait, averaged over ….

Going from chain 1 L14D to chain 1 L14V, the screen value rises from 0.000292 average fractional NGS count over selection days 2 and 3 (reads of this peptide / all reads for the bait, averaged over … to 0.000293 average fractional NGS count over selection days 2 and 3 (reads of this peptide / all reads for the bait, averaged over ….

Going from chain 1 L14W to chain 1 L14H, the screen value rises from 0.000239 average fractional NGS count over selection days 2 and 3 (reads of this peptide / all reads for the bait, averaged over … to 0.00159 average fractional NGS count over selection days 2 and 3 (reads of this peptide / all reads for the bait, averaged over ….

First: chain 1 L14M
Second: chain 1 L14N
The screen value of the first is lower: 0.000829 average fractional NGS count over selection days 2 and 3 (reads of this peptide / all reads for the bait, averaged over … for the first, 0.0048 average fractional NGS count over selection days 2 and 3 (reads of this peptide / all reads for the bait, averaged over … for the second.

Compared with chain 1 E9H, chain 1 E9D is higher in screen value: 0.000122 average fractional NGS count over selection days 2 and 3 (reads of this peptide / all reads for the bait, averaged over … for the first, 0.000993 average fractional NGS count over selection days 2 and 3 (reads of this peptide / all reads for the bait, averaged over … for the second.

Going from chain 1 E9A to chain 1 E9M, the screen value rises from 0.000182 average fractional NGS count over selection days 2 and 3 (reads of this peptide / all reads for the bait, averaged over … to 0.000348 average fractional NGS count over selection days 2 and 3 (reads of this peptide / all reads for the bait, averaged over ….

Compared with chain 1 E9I, chain 1 E9F is higher in screen value: 0.000125 average fractional NGS count over selection days 2 and 3 (reads of this peptide / all reads for the bait, averaged over … for the first, 0.000875 average fractional NGS count over selection days 2 and 3 (reads of this peptide / all reads for the bait, averaged over … for the second.

First: chain 1 E9G
Second: chain 1 E9Y
The screen value of the first is lower: 0.000184 average fractional NGS count over selection days 2 and 3 (reads of this peptide / all reads for the bait, averaged over … for the first, 0.000223 average fractional NGS count over selection days 2 and 3 (reads of this peptide / all reads for the bait, averaged over … for the second.

Going from chain 1 E9S to chain 1 E9V, the screen value falls from 0.0016 average fractional NGS count over selection days 2 and 3 (reads of this peptide / all reads for the bait, averaged over … to 0.000671 average fractional NGS count over selection days 2 and 3 (reads of this peptide / all reads for the bait, averaged over ….

First: chain 1 V4H
Second: chain 1 V4I
The screen value of the first is lower: 0.000116 average fractional NGS count over selection days 2 and 3 (reads of this peptide / all reads for the bait, averaged over … for the first, 0.000288 average fractional NGS count over selection days 2 and 3 (reads of this peptide / all reads for the bait, averaged over … for the second.

First: chain 1 V4N
Second: chain 1 V4L
The screen value of the first is lower: 0.000273 average fractional NGS count over selection days 2 and 3 (reads of this peptide / all reads for the bait, averaged over … for the first, 0.000307 average fractional NGS count over selection days 2 and 3 (reads of this peptide / all reads for the bait, averaged over … for the second.

First: chain 1 V4Y
Second: chain 1 V4W
The screen value of the first is lower: 0.000247 average fractional NGS count over selection days 2 and 3 (reads of this peptide / all reads for the bait, averaged over … for the first, 0.00027 average fractional NGS count over selection days 2 and 3 (reads of this peptide / all reads for the bait, averaged over … for the second.

Compared with chain 1 V4T, chain 1 V4A is lower in screen value: 0.00342 average fractional NGS count over selection days 2 and 3 (reads of this peptide / all reads for the bait, averaged over … for the first, 0.000356 average fractional NGS count over selection days 2 and 3 (reads of this peptide / all reads for the bait, averaged over … for the second.

First: chain 1 F13G
Second: chain 1 F13L
The screen value of the first is higher: 0.00169 average fractional NGS count over selection days 2 and 3 (reads of this peptide / all reads for the bait, averaged over … for the first, 0.00028 average fractional NGS count over selection days 2 and 3 (reads of this peptide / all reads for the bait, averaged over … for the second.

Going from chain 1 F13K to chain 1 F13E, the screen value falls from 0.00119 average fractional NGS count over selection days 2 and 3 (reads of this peptide / all reads for the bait, averaged over … to 0.000282 average fractional NGS count over selection days 2 and 3 (reads of this peptide / all reads for the bait, averaged over ….

Going from chain 1 F13V to chain 1 F13R, the screen value rises from 0.000201 average fractional NGS count over selection days 2 and 3 (reads of this peptide / all reads for the bait, averaged over … to 0.00192 average fractional NGS count over selection days 2 and 3 (reads of this peptide / all reads for the bait, averaged over ….

Compared with chain 1 F13N, chain 1 F13T is lower in screen value: 0.00134 average fractional NGS count over selection days 2 and 3 (reads of this peptide / all reads for the bait, averaged over … for the first, 0.00119 average fractional NGS count over selection days 2 and 3 (reads of this peptide / all reads for the bait, averaged over … for the second.

Compared with chain 1 F13D, chain 1 F13Y is lower in screen value: 0.00238 average fractional NGS count over selection days 2 and 3 (reads of this peptide / all reads for the bait, averaged over … for the first, 0.00195 average fractional NGS count over selection days 2 and 3 (reads of this peptide / all reads for the bait, averaged over … for the second.

Compared with chain 1 F13Q, chain 1 F13A is lower in screen value: 0.00155 average fractional NGS count over selection days 2 and 3 (reads of this peptide / all reads for the bait, averaged over … for the first, 0.000255 average fractional NGS count over selection days 2 and 3 (reads of this peptide / all reads for the bait, averaged over … for the second.

First: chain 1 F13W
Second: chain 1 F13S
The screen value of the first is higher: 0.00114 average fractional NGS count over selection days 2 and 3 (reads of this peptide / all reads for the bait, averaged over … for the first, 0.000565 average fractional NGS count over selection days 2 and 3 (reads of this peptide / all reads for the bait, averaged over … for the second.

Going from chain 1 A10W to chain 1 A10Y, the screen value falls from 0.000448 average fractional NGS count over selection days 2 and 3 (reads of this peptide / all reads for the bait, averaged over … to 0.000126 average fractional NGS count over selection days 2 and 3 (reads of this peptide / all reads for the bait, averaged over ….

First: chain 1 A10V
Second: chain 1 A10G
The screen value of the first is lower: 0.000572 average fractional NGS count over selection days 2 and 3 (reads of this peptide / all reads for the bait, averaged over … for the first, 0.00122 average fractional NGS count over selection days 2 and 3 (reads of this peptide / all reads for the bait, averaged over … for the second.

Going from chain 1 I2W to chain 1 I2E, the screen value falls from 0.00792 average fractional NGS count over selection days 2 and 3 (reads of this peptide / all reads for the bait, averaged over … to 0.00021 average fractional NGS count over selection days 2 and 3 (reads of this peptide / all reads for the bait, averaged over ….

Compared with chain 1 I2L, chain 1 I2H is higher in screen value: 0.000364 average fractional NGS count over selection days 2 and 3 (reads of this peptide / all reads for the bait, averaged over … for the first, 0.000551 average fractional NGS count over selection days 2 and 3 (reads of this peptide / all reads for the bait, averaged over … for the second.

First: chain 1 I2A
Second: chain 1 I2S
The screen value of the first is higher: 0.00266 average fractional NGS count over selection days 2 and 3 (reads of this peptide / all reads for the bait, averaged over … for the first, 0.000713 average fractional NGS count over selection days 2 and 3 (reads of this peptide / all reads for the bait, averaged over … for the second.

Compared with chain 1 I2Q, chain 1 I2Y is higher in screen value: 0.000479 average fractional NGS count over selection days 2 and 3 (reads of this peptide / all reads for the bait, averaged over … for the first, 0.00134 average fractional NGS count over selection days 2 and 3 (reads of this peptide / all reads for the bait, averaged over … for the second.

Going from chain 1 I2F to chain 1 I2P, the screen value falls from 0.000676 average fractional NGS count over selection days 2 and 3 (reads of this peptide / all reads for the bait, averaged over … to 0.000427 average fractional NGS count over selection days 2 and 3 (reads of this peptide / all reads for the bait, averaged over ….

Compared with chain 1 E12N, chain 1 E12Y is higher in screen value: 0.000144 average fractional NGS count over selection days 2 and 3 (reads of this peptide / all reads for the bait, averaged over … for the first, 0.000478 average fractional NGS count over selection days 2 and 3 (reads of this peptide / all reads for the bait, averaged over … for the second.

In the case of chain 1 E12G, the screen value is reported as 0.00105 average fractional NGS count over selection days 2 and 3 (reads of this peptide / all reads for the bait, averaged over ….
